In data set [1] the target is T1, NusA-HuR (UniProt Q15717 1-326). Nature of the data set: EMSA; 0-3 uM HuR, 100 nM RNA; EMSA: 50 mM Tris pH 7.5, 50 mM KCl, 37 C, 1 h, 100 nM 32P-RNA; 7% native PAGE in 40 mM Tris-acetate pH 8.0, 1 mM EDTA, room temperature. To be noted: protein: recombinant; tags: N-terminal NusA fusion, TEV site ENLYFQS; Ni-NTA purified; label: 32P. (In EMSA bound probe runs differently from free probe, usually more slowly.)

Data set [2] addresses T1, NusA-HuR. Nature of the data set: EMSA; EMSA: 50 mM Tris pH 7.5, 50 mM KCl, 37 C, 1 h, 100 nM 32P-RNA; 7% native PAGE in 40 mM Tris-acetate pH 8.0, 1 mM EDTA, room temperature. The settings on record: protein: recombinant; tags: N-terminal NusA fusion, TEV site ENLYFQS; Ni-NTA purified; label: 32P; RNA template with annealed primer.

T1 sequence (Q15717 whole entry, the tested form may be a part): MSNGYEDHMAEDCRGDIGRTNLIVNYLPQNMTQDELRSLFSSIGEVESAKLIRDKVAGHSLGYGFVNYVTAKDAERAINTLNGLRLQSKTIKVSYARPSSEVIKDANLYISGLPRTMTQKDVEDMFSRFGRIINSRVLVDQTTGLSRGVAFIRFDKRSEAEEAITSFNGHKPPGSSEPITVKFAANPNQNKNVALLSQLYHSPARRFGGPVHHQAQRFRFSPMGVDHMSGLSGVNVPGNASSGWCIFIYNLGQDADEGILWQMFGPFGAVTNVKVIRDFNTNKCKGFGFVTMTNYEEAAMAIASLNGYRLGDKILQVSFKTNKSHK

B1: ARE-containing synthetic ssRNA (Fig. 2C) (ssRNA)
RNA: UCAGAUAUUUAUAUUUUUAUUUUAUUUUUUUCUACCUUGAGGUCUUUUGA
With B1, the binding result in the data set with NusA-HuR [1] is listed as “binds”.

B2: ARE-containing template/primer (Fig. 4B) (mixed)
RNA: UCAGAUAUUUAUAUUUUUAUUUUAUUUUUUUCUACCUUGAGGUCUUUUGA
DNA: CACTAGTCAAAAGACCTC
Take B2: the binding result with NusA-HuR [2] is “binds”.
